Experimental findings from publication PMC7026663 are described below.

Assay [1] addresses nucleosome core particle (NCP). Briefly: native gel or EMSA. A general note: A gel shift assay detects complexes by their altered migration in electrophoresis.
The target of assay [2] is nucleosome core particle (NCP). Description: AUC.
Assay [3] concerns the target nucleosome core particle (NCP). Description: ITC. In general terms: In ITC the heat of successive injections is recorded.
Assay [4] concerns the target GST-tagged AtFKBP53 NTD (Arabidopsis thaliana).
The target of assay [5] is AtFKBP53 NTD (residues 1–112) (Arabidopsis thaliana) (UniProt Q93ZG9). Description: AUC.
Chain of AtFKBP53 NTD (residues 1–112) (Arabidopsis thaliana) (Q93ZG9 1-112): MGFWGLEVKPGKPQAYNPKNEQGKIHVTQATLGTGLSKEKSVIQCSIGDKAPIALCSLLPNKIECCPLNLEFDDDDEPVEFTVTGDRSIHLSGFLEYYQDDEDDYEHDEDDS

The stoichiometry N is a count of units in the complex or per binding partner.

Chain of AtFKBP53 NTD (residues 1–112) (Q93ZG9 1-112): as above
Chain of GST-tagged AtFKBP53 NTD (domain or fragment) (Q93ZG9 whole entry, the tested form may be a part): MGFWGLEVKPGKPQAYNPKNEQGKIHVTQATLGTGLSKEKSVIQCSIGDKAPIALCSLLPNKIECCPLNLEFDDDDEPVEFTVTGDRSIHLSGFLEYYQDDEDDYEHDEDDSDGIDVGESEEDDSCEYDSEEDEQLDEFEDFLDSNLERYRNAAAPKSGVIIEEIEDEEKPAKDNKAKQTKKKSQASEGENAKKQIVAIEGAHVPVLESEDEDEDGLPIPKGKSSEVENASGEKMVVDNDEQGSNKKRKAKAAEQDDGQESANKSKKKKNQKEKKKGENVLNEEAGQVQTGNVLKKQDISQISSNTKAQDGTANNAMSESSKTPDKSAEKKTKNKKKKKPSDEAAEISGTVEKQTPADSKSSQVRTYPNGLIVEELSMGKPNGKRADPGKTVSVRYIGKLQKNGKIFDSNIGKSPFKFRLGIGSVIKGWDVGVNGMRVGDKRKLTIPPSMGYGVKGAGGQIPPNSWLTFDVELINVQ

“AtFKBP53 NTD (residues 1–112) (from UniProt Q93ZG9 1-112) (domain or fragment)”: in assay [1], the stoichiometry N (NTD pentamers per NCP) came to 2. In addition, in assay [2], the stoichiometry N (NTD pentamers per NCP) amounted to 2. For the same substance, in assay [3], the Kd1 (first site, sequential binding model) worked out at 0.18 µM; the Kd2 (second site, sequential binding model) was 2.72 µM; the stoichiometry N (binding sites on NCP) came to 2.

“GST-tagged AtFKBP53 NTD (domain or fragment)” showed a stoichiometry N in assay [4] of 2.

Substance “H2A/H2B dimer (from UniProt P06897;P02281) (complex)” yielded a stoichiometry N (H2A/H2B dimer per NTD pentamer) in assay [5] of 1.

On to “H3/H4 tetramer (from UniProt P84233;P62799) (complex)”, for which, in assay [5], the stoichiometry N (H3/H4 tetramer per NTD pentamer) came to 1.
